Our source for the binding signal values is publication PMC6555819, “Comprehensive study of nuclear receptor DNA binding provides a revised framework for understanding receptor specificity”.

Residue numbers refer to the chain shown, from its start.

To fix the notation:
B1: NRC3_wobSeed4_DR0_T8G_o1 (dsDNA)
DNA 1: GCCCTACGGGGCCAAGGTCATTGATCAGTCAAAGCAGCGATTGACAGCGTAGAATGAAGG
DNA 2: CCTTCATTCTACGCTGTCAATCGCTGCTTTGACTGATCAATGACCTTGGCCCCGTAGGGC
B2: NRC3_wobSeed74_DR3_A14G_o1 (dsDNA)
DNA 1: GCTCTAGTTGGTCGCGGAGGTCACACACGACGGGTAGCGATTGACAGCGTAGAATGAAGG
DNA 2: CCTTCATTCTACGCTGTCAATCGCTACCCGTCGTGTGTGACCTCCGCGACCAACTAGAGC
B3: NRC3_wobSeed136_DR5_G21C_o1 (dsDNA)
DNA 1: GCTAGCCTAGGTCATTCAGGCGCCAGTATAGAAAGCGCGATTGACAGCGTAGAATGAAGG
DNA 2: CCTTCATTCTACGCTGTCAATCGCGCTTTCTATACTGGCGCCTGAATGACCTAGGCTAGC
B4: NRC3_wobSeed65_DR2_T8C_o1 (dsDNA)
DNA 1: GCATATGCAGGTTATCGGGTCATTCAGTTTGCGCATGCGATTGACAGCGTAGAATGAAGG
DNA 2: CCTTCATTCTACGCTGTCAATCGCATGCGCAAACTGAATGACCCGATAACCTGCATATGC
B5: NRC3_wobSeed65_DR2_A9G_o1 (dsDNA)
DNA 1: B4 DNA 1 with C8T, A9G
DNA 2: B4 DNA 2 with T52C, G53A
B6: NRC3_wobSeed63_DR2_G19A_o1 (dsDNA)
DNA 1: GCCGAACTAGGTCACCAGAACAGTGAAGAGGTTGGAGCGATTGACAGCGTAGAATGAAGG
DNA 2: CCTTCATTCTACGCTGTCAATCGCTCCAACCTCTTCACTGTTCTGGTGACCTAGTTCGGC
B7: NRC3_wobSeed30_DR1_C4G_o1 (dsDNA)
DNA 1: GCAGTAGCAGGCCAAGGGTCACTCAAGATTAGTCCGGCGATTGACAGCGTAGAATGAAGG
DNA 2: CCTTCATTCTACGCTGTCAATCGCCGGACTAATCTTGAGTGACCCTTGGCCTGCTACTGC
B8: NRC3_wobSeed50_DR2_T12G_o1 (dsDNA)
DNA 1: GCCCTAGTTGGGCAGGAGGTCACACACCGGATATGAGCGATTGACAGCGTAGAATGAAGG
DNA 2: CCTTCATTCTACGCTGTCAATCGCTCATATCCGGTGTGTGACCTCCTGCCCAACTAGGGC
B9: NRC3_wobSeed101_DR4_G20T_o1 (dsDNA)
DNA 1: GCCCTTACGGGTCACTCCATGTTATAGCATCGGAGTGCGATTGACAGCGTAGAATGAAGG
DNA 2: CCTTCATTCTACGCTGTCAATCGCACTCCGATGCTATAACATGGAGTGACCCGTAAGGGC
B10: NRC3_wobSeed36_DR1_A26G_o1 (dsDNA)
DNA 1: GCCCGACTGGGGCAAAGGTTACCATGCTCAGTACGAGCGATTGACAGCGTAGAATGAAGG
DNA 2: CCTTCATTCTACGCTGTCAATCGCTCGTACTGAGCATGGTAACCTTTGCCCCAGTCGGGC
B11: NRC3_wobSeed137_DR5_A16G_o1 (dsDNA)
DNA 1: GCATATGTAGGTTACGTCCGGGTCATTCAGGCTATGGCGATTGACAGCGTAGAATGAAGG
DNA 2: CCTTCATTCTACGCTGTCAATCGCCATAGCCTGAATGACCCGGACGTAACCTACATATGC
B12: NRC3_wobSeed99_DR4_G10T_o1 (dsDNA)
DNA 1: GCTCTCGGATGACACGAAAGGTCAGAGCTCGACATCGCGATTGACAGCGTAGAATGAAGG
DNA 2: CCTTCATTCTACGCTGTCAATCGCGATGTCGAGCTCTGACCTTTCGTGTCATCCGAGAGC
B13: NRC3_wobSeed73_DR3_T21G_o1 (dsDNA)
DNA 1: GCCAAACTAGGTCACAGAGGGCAAAGTCCGTGCGTAGCGATTGACAGCGTAGAATGAAGG
DNA 2: CCTTCATTCTACGCTGTCAATCGCTACGCACGGACTTTGCCCTCTGTGACCTAGTTTGGC
B14: NRC3_wobSeed73_DR3_T21A_o1 (dsDNA)
DNA 1: B13 DNA 1 with G21A
DNA 2: B13 DNA 2 with C40T
B15: NRC3_wobSeed46_DR1_T22G_o1 (dsDNA)
DNA 1: GCTTACCAAGGTGAAAGGTCGGTGATGCACGCCTTGGCGATTGACAGCGTAGAATGAAGG
DNA 2: CCTTCATTCTACGCTGTCAATCGCCAAGGCGTGCATCACCGACCTTTCACCTTGGTAAGC
B16: NRC3_wobSeed98_DR4_o1 (dsDNA)
DNA 1: GCACTAGTTGGTCAGCTGAGGTCACACACAATTCGGGCGATTGACAGCGTAGAATGAAGG
DNA 2: CCTTCATTCTACGCTGTCAATCGCCCGAATTGTGTGTGACCTCAGCTGACCAACTAGTGC
B17: NRC3_wobSeed98_DR4_G15C_o1 (dsDNA)
DNA 1: B16 DNA 1 with G15C
DNA 2: B16 DNA 2 with C46G
B18: NRC3_wobSeed6_DR0_A6G_o1 (dsDNA)
DNA 1: GCCCTGGCAGGCCAGGGTCACTCAAGCATTTCGCTTGCGATTGACAGCGTAGAATGAAGG
DNA 2: CCTTCATTCTACGCTGTCAATCGCAAGCGAAATGCTTGAGTGACCCTGGCCTGCCAGGGC
B19: NRC3_wobSeed6_DR0_C13G_o1 (dsDNA)
DNA 1: B18 DNA 1 with G6A, C13G
DNA 2: B18 DNA 2 with G48C, C55T
B20: NRC3_wobSeed21_DR0_T18C_o1 (dsDNA)
DNA 1: GCCGTCAAAGTTCAAGGCAACGTAACAGAAAGCAGCGCGATTGACAGCGTAGAATGAAGG
DNA 2: CCTTCATTCTACGCTGTCAATCGCGCTGCTTTCTGTTACGTTGCCTTGAACTTTGACGGC
B21: NRC3_wobSeed93_DR3_A23T_o1 (dsDNA)
DNA 1: GCAGTCAAAGTTCATCTAGGTATCGTAAGATATGCTGCGATTGACAGCGTAGAATGAAGG
DNA 2: CCTTCATTCTACGCTGTCAATCGCAGCATATCTTACGATACCTAGATGAACTTTGACTGC
B22: NRC3_wobSeed32_DR1_C4A_o1 (dsDNA)
DNA 1: GCTATTGTAGATCAAAGGTTAAGAAAGCCGAAGCCTGCGATTGACAGCGTAGAATGAAGG
DNA 2: CCTTCATTCTACGCTGTCAATCGCAGGCTTCGGCTTTCTTAACCTTTGATCTACAATAGC
B23: NRC3_wobSeed64_DR2_T16A_o1 (dsDNA)
DNA 1: GCTAGCCTAGGTCATAGGGCCAGTATAGTACGCATCGCGATTGACAGCGTAGAATGAAGG
DNA 2: CCTTCATTCTACGCTGTCAATCGCGATGCGTACTATACTGGCCCTATGACCTAGGCTAGC
B24: NRC3_wobSeed82_DR3_A28G_o1 (dsDNA)
DNA 1: GCATCGAAAGGTCGACGAGGTGAGTATGCACCGTTTGCGATTGACAGCGTAGAATGAAGG
DNA 2: CCTTCATTCTACGCTGTCAATCGCAAACGGTGCATACTCACCTCGTCGACCTTTCGATGC
B25: NRC3_wobSeed134_DR5_o1 (dsDNA)
DNA 1: GCGCTGCTAGGTCAACTGATGGTCAGCTAAAGCTCGGCGATTGACAGCGTAGAATGAAGG
DNA 2: CCTTCATTCTACGCTGTCAATCGCCGAGCTTTAGCTGACCATCAGTTGACCTAGCAGCGC
B26: NRC3_wobSeed134_DR5_C13T_o1 (dsDNA)
DNA 1: B25 DNA 1 with C13T
DNA 2: B25 DNA 2 with G48A
B27: NRC3_wobSeed124_DR5_T16A_o1 (dsDNA)
DNA 1: GCCCTACTGGGCCATACAGAGGTCATTGATCATATGGCGATTGACAGCGTAGAATGAAGG
DNA 2: CCTTCATTCTACGCTGTCAATCGCCATATGATCAATGACCTCTGTATGGCCCAGTAGGGC
B28: NRC3_wobSeed124_DR5_A6T_o1 (dsDNA)
DNA 1: B27 DNA 1 with A6T, A16T
DNA 2: B27 DNA 2 with T45A, T55A
B29: NRC3_wobSeed124_DR5_C24T_o1 (dsDNA)
DNA 1: B27 DNA 1 with A16T, C24T
DNA 2: B27 DNA 2 with G37A, T45A
B30: NRC3_wobSeed124_DR5_T5C_o1 (dsDNA)
DNA 1: B27 DNA 1 with T5C, A16T
DNA 2: B27 DNA 2 with T45A, A56G
B31: NRC3_wobSeed124_DR5_G10T_o1 (dsDNA)
DNA 1: B27 DNA 1 with G10T, A16T
DNA 2: B27 DNA 2 with T45A, C51A
B32: NRC3_wobSeed88_DR3_T15A_o1 (dsDNA)
DNA 1: GCTAGCCTAGGTCAAGCGGGCCAGTATAGTGTCGGCGCGATTGACAGCGTAGAATGAAGG
DNA 2: CCTTCATTCTACGCTGTCAATCGCGCCGACACTATACTGGCCCGCTTGACCTAGGCTAGC

The target in this data set is RXRa (Homo sapiens, UniProt P19793). The data set can be described thus: no ligand; PBM; 180 nM; PBS pH 7.4, 2% milk, 0.02% Triton X-100, 1 mM DTT, BSA, 0.4 mg/ml salmon testes DNA. The following applies: tags: His cleaved; chain copies: 2; label: surface-attached array probe.
Sequence of RXRa (P19793 whole entry): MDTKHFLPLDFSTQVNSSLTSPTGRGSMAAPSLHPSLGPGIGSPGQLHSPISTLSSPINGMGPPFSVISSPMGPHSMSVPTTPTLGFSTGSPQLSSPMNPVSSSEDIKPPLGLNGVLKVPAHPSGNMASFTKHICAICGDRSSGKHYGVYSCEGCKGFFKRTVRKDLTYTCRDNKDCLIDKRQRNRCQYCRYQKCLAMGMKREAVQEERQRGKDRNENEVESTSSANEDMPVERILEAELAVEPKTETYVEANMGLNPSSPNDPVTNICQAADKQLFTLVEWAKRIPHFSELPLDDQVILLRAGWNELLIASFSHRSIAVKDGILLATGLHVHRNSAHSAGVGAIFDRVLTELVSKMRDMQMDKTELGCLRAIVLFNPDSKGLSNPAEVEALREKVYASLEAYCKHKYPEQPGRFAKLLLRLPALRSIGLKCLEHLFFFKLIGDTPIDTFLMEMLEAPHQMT
For B1, the binding signal is 3.5 PBM z-score against 500 random probes.

Turning to B2, the binding signal is 4.16 PBM z-score against 500 random probes. Regarding B3, the binding signal was 3 PBM z-score against 500 random probes. In the case of B4, the binding signal is 3.65 PBM z-score against 500 random probes.

For B5, the binding signal was 3.44 PBM z-score against 500 random probes. Under B6 stands 3.24 PBM z-score against 500 random probes.

On to B7, for which the binding signal is 4.38 PBM z-score against 500 random probes.

With B8, the binding signal was 3.92 PBM z-score against 500 random probes. Consider B9, for which the binding signal is 4.24 PBM z-score against 500 random probes. The value for B10 was 3.81 PBM z-score against 500 random probes; that for B11 was 3.33 PBM z-score against 500 random probes. Under B12 stands 4.05 PBM z-score against 500 random probes; under B13, 4.01 PBM z-score against 500 random probes; under B14, 3.55 PBM z-score against 500 random probes. Take B15: the binding signal is 3.86 PBM z-score against 500 random probes.

With B16, the binding signal was 4.42 PBM z-score against 500 random probes. In the case of B17, the binding signal is 4.28 PBM z-score against 500 random probes.

Consider B18, for which the binding signal was 3.39 PBM z-score against 500 random probes.

As to B19, the binding signal was 3.19 PBM z-score against 500 random probes. Consider B20, for which the binding signal is 3.96 PBM z-score against 500 random probes.

In the case of B21, the binding signal was 4.47 PBM z-score against 500 random probes.

Turning to B22, the binding signal was 3.28 PBM z-score against 500 random probes. With B23, the binding signal is 3.11 PBM z-score against 500 random probes. As to B24, the binding signal is 4.34 PBM z-score against 500 random probes. Regarding B25, the binding signal was 3.07 PBM z-score against 500 random probes. The value for B26 was 0.49 PBM z-score against 500 random probes; that for B27 was 4.2 PBM z-score against 500 random probes; that for B28 was 3.71 PBM z-score against 500 random probes. Take B29: the binding signal was 0.48 PBM z-score against 500 random probes. Take B30: the binding signal was 3.75 PBM z-score against 500 random probes. Under B31 stands 3.59 PBM z-score against 500 random probes; under B32, 3.14 PBM z-score against 500 random probes.
